From patent US20030032045

Target: in vitro translated, 35S-labeled PARP (full length human poly(ADP-ribose) polymerase), P09874
Sequence (P09874 whole entry, looked up): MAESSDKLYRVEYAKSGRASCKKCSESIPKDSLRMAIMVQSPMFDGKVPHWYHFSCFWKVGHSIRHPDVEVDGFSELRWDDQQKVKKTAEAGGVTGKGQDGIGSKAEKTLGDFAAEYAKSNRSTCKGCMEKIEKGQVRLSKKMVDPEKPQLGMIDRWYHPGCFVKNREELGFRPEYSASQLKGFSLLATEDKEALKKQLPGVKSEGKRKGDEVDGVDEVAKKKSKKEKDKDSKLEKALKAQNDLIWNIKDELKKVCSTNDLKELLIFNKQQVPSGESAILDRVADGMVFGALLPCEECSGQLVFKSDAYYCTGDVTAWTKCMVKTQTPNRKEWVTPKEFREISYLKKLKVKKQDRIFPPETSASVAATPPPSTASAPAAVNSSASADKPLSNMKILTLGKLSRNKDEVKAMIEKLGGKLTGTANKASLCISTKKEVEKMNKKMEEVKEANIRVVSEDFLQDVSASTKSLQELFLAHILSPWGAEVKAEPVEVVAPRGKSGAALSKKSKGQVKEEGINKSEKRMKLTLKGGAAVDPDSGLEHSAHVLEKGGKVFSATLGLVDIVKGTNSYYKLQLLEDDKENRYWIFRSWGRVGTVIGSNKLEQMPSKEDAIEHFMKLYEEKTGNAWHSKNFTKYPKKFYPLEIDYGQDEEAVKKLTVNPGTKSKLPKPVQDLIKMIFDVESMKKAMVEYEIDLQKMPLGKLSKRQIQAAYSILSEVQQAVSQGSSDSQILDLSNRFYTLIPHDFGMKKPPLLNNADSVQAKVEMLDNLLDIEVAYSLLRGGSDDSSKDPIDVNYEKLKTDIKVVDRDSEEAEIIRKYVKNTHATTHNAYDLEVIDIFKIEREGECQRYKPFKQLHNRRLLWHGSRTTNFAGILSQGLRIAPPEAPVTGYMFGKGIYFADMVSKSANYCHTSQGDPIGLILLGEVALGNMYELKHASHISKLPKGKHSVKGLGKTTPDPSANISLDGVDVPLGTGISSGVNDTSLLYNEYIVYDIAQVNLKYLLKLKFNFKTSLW

B1: CPP32 (endogenous, in HeLa cell S-100) (protein)
chain: MENTENSVDSKSIKNLEPKIIHGSESMDSGISLDNSYKMDYPEMGLCIIINNKNFHKSTGMTSRSGTDVDAANLRETFRNLKYEVRNKNDLTREEIVELMRDVSKEDHSKRSSFVCVLLSHGEEGIIFGTNGPVDLKKITNFFRGDRCRSLTGKPKLFIIQACRGTELDCGIETDSGVDDDMACHKIPVEADFLYAYSTAPGYYSWRNSKDGSWFIQSLCAMLKQYADKLEFMHILTRVNRKVATEFESFSFDATFHAKKQIPCIVSMLTKELYFYH
- cleavage of 35S-labeled PARP (SDS-PAGE, autoradiography): The activated extracts readily cleaved PARP into 85 kDa and 24 kDa fragments
